Assay results from patent US20200325187A1 (Genentech, published 2020).
Read-outs that look alike come from different tables or passages of the source. No end group written: not given here.

What was measured:
hVEGF-A [1] = molecular target: T1, hVEGF-A (human, UniProt P15692-4 27-191, limits assumed); assay: phage competition ELISA, soluble CKP
T1 construct: also called human VEGF-A; WT

hVEGF-A (8-109) [2] = molecular target: T2, hVEGF-A (8-109) (human, UniProt P15692 214-315); assay: spot phage ELISA
T2 sequence (looked up): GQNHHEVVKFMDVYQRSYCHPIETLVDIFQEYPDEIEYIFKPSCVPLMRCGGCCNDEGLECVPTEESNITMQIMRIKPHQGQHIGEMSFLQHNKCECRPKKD
Description: (§1) After four rounds of binding selection, individual phage clones were picked and inoculated into 450 μl 2YT media containing 50 µg/ml Carbenecillin and M13-KO7 helper phage in 96-well blocks, which were grown at 37° C. overnight. […] The plates were washed and bound phage was detected with anti-M13-HRP followed by TMB substrate. In these assays, phage binding to BSA alone was tested in parallel to assess background binding. […] Positive clones were subjected to DNA sequence analysis.

hVEGF-A [3] = molecular target: T1, hVEGF-A; assay: phage competition ELISA, soluble CKP; remark: listed apart in the source
hVEGF-A [4] = molecular target: T1, hVEGF-A; assay: cell-based or functional assay
hVEGF-A (8-109) [5] = molecular target: T2, hVEGF-A (8-109); assay: spot phage ELISA; remark: listed apart in the source
Description: as §1

hVEGF-A (8-109) [6] = molecular target: T2, hVEGF-A (8-109); assay: phage competition ELISA (clone on phage; the concentration varied on the axis is that of hVEGF (8-109))
hVEGF-A (8-109) [7] = molecular target: T2, hVEGF-A (8-109); assay: as above; remark: listed apart in the source
hVEGF-A (8-109) [8] = molecular target: T2, hVEGF-A (8-109); assay: spot phage ELISA; remark: listed apart in the source
Description: as §1

hVEGF-A [9] = molecular target: T1, hVEGF-A; assay: SPR
Description: Depending on the format of the assay either a streptavidin sensor (SA) or a dextran-coated (CM5) sensor was utilized as described below.
Reaction was then quenched by addition of 10 molar excess of Glycine pH 8.0 and the sample was buffer exchanged into PBS using an Amicon 0.5 mL 3000 MWCO ultra-centrifugal filters (EMD Millipore). The biotinylation state of the protein was verified by LC-MS analysis. Biotinylated VEGF-A was then captured on the surface until a resonance unit (RU) signal of about ˜400. For immobilization of VEGF-A on CM5 sensor, the surface was first activated with a mixture of N-ethyl-N′-(3-dimethylaminopropyl)carbodiimide hydrochloride and N-hydroxysuccinimide (EDC/NHS) according to the supplier instructions. VEGF-A was then diluted into coupling buffer (0.1 M Acetate Buffer, pH 5.0) and injected until the signal reached about ˜400 RU followed by a wash with 1 M ethanolamine pH 8.0 to quench remaining activated sites.

hVEGF-A [10] = molecular target: T1, hVEGF-A; assay: KDR-VEGF competition ELISA
hVEGF-A [11] = molecular target: T1, hVEGF-A; assay: cell-based or functional assay; remark: listed apart in the source

GCDRMQPLWGCKQDSDCLAGCVCLWYKSCG (designed binder) [VEGF_CKP9.4]
IC50 (hVEGF-A [1]): 1950 nM

GCPTTRFKQYCKQDSDCLAGCVCGPNGFCG (designed binder) [VEGF_CKP6]
ELISA (hVEGF-A (8-109) [2]): 3.5 | S/N vs BSA (hVEGF-A (8-109) [2]): 51.9 | IC50 (hVEGF-A [3]): 3000 nM

GCNIMLPYWGCGRDFECFYECICQYYQSCG (designed binder) [VEGF_CKP9.54.90.62.F8Y]
Cellular IC50 (hVEGF-A [4]): 1.14 nM | FOLD [..] [..] TO VARIANT 9.54.90 (hVEGF-A [4]): 1.18 fold

GCQISQPFWGCKQDSDCLAGCVCHFYNSCG (designed binder) [VEGF_CKP9.3]
IC50 (hVEGF-A [1]): 1500 nM | ELISA (hVEGF-A (8-109) [5]): 1.6 | S/N vs BSA (hVEGF-A (8-109) [5]): 24.5

GCDVMQPYWGCEMDFDCLAGCICHWYNSCGFS (designed binder) [9.63.44-1]
IC50 (read off the curve) (hVEGF-A (8-109) [6]): ~0.04 nM

GCDVMQPYWGCEMDFDCLAGCVCHWYNSCGQF (designed binder) [9.63.44-13]
IC50 (read off the curve) (hVEGF-A (8-109) [7]): ~0.3 nM

GCDVMQPYWGCEMDFDCLAGCICHWYNSCGQV (designed binder) [9.63.44-2]
IC50 (read off the curve) (hVEGF-A (8-109) [6]): ~0.03 nM

GCDVMQPYWGCEMDFDCLAGCICHWYNSCGPT (designed binder) [9.63.44-5]
binding result (hVEGF-A (8-109) [6]): binds

GCDVMQPYWGCEMDFDCLAGCICHWYNSCGLQ (designed binder) [9.63.44-9]
IC50 (read off the curve) (hVEGF-A (8-109) [7]): ~0.03 nM

GCDVMQPYWGCEMDFDCLVGCVCHWYNSCGDE (designed binder) [9.63.44-10]
IC50 (read off the curve) (hVEGF-A (8-109) [7]): ~5 nM

GCDVMQPYWGCEMDFDCLAGCVCHWYNSCGSM (designed binder) [9.63.44-6]
binding result (hVEGF-A (8-109) [6]): binds

GCDVMQPYWGCEMDFDCLAGCICHWYNSCGYA (designed binder) [9.63.44-3]
IC50 (read off the curve) (hVEGF-A (8-109) [6]): ~0.03 nM

GCDVMQPYWGCEMDFDCLAGCVCHWYNSCGGI (designed binder) [9.63.44-7]
IC50 (read off the curve) (hVEGF-A (8-109) [6]): ~0.03 nM

GCDVMQPYWGCEMDFDCLAGCVCHWYNSCGPL (designed binder) [9.63.44-12]
IC50 (read off the curve) (hVEGF-A (8-109) [7]): ~0.1 nM

GCDVMQPYWGCEMDFDCLAGCICHWYNSCGWK (designed binder) [9.63.44-14 (SEQ ID NO: 532)]
IC50 (read off the curve) (hVEGF-A (8-109) [7]): ~0.07 nM

GCDVMQPYWGCEMDFDCLAGCICHWYNSCGSR (designed binder) [9.63.44-4]
IC50 (read off the curve) (hVEGF-A (8-109) [6]): ~0.04 nM

GCDVMQPYWGCEMDFDCLAGCVCHWYNSCGDL (designed binder) [9.63.44-11]
binding result (hVEGF-A (8-109) [7]): binds

GCDVMQPYWGCEMDFDCLAGCICHWYNSCGTS (designed binder) [9.63.44-8]
IC50 (read off the curve) (hVEGF-A (8-109) [7]): ~0.02 nM

GCDVMQPYWGCGPDIDCLSNCICHWYNSCG (designed binder) [VEGF_CKP9.63.12.12]
Cellular IC50 (hVEGF-A [4]): 0.56 nM | FOLD [..] [..] TO VARIANT 9.54.90 (hVEGF-A [4]): 2.41 fold

GCNIMLPFWGCGRDFECFINCICQYYQSCG (designed binder) [VEGF_CKP9.54.90.44]
Cellular IC50 (hVEGF-A [4]): 1.16 nM | FOLD [..] [..] TO VARIANT 9.54.90 (hVEGF-A [4]): 1.16 fold

GCQDPTFNWALYCKQDSDCLAGCVCQMYQSCG (designed binder) [VEGF_CKP7]
ELISA (hVEGF-A (8-109) [8]): 0.1 | S/N vs BSA (hVEGF-A (8-109) [8]): 1.3 | ELISA (hVEGF-A (8-109) [2]): 3.4 | S/N vs BSA (hVEGF-A (8-109) [2]): 54.5 | IC50 (hVEGF-A [3]): 12000 nM

GCRDLDVKWDCKQDSDCLAGCFCQYYSSCG (designed binder) [VEGF_CKP10]
ELISA (hVEGF-A (8-109) [2]): 3.2 | S/N vs BSA (hVEGF-A (8-109) [2]): 43.7 | IC50 (hVEGF-A [3]): 1000 nM

B1: VEGF_CKP9.54.90-Alkyn (designed binder)
chain: GCNIMLPFWGCGRDFECLAGCVCQYYQSCG
modifications: cysteine pairing not given here; also: -Alkyn: alkyne modification, position not given here
Kd (hVEGF-A [9]): 0.49 nM

GCDVMQPYWGCGENFLCLAGCVCHWYNSCG (designed binder, also called L2.9.63.1) [VEGF_CKP9.63.1]
IC50 (hVEGF-A [10]): 0.4 nM | ELISA (hVEGF-A (8-109) [2]): 2 | S/N vs BSA (hVEGF-A (8-109) [2]): 25.2 | Cellular IC50 (hVEGF-A [11]): 0.49 nM

GCDVMQPYWGCGESLSCLAGCVCHWYNSCG (designed binder, also called L2.9.63.69) [VEGF_CKP9.63.69]
IC50 (hVEGF-A [10]): 2.1 nM | ELISA (hVEGF-A (8-109) [2]): 2.9 | S/N vs BSA (hVEGF-A (8-109) [2]): 23.7 | Cellular IC50 (hVEGF-A [11]): 26.4 nM

GCNIMLPYWGCGQSFECLAGCVCQYYQSCG (designed binder) [VEGF_CKP9.54.1.F8Y]
Kd (hVEGF-A [9]): 0.78 nM

GCNIMLPFWGCGPDLQCLAGCVCQYYQSCG (designed binder) [VEGF_CKP9.54.59]
IC50 (hVEGF-A [10]): 0.5 nM | ELISA (hVEGF-A (8-109) [2]): 2.3 | S/N vs BSA (hVEGF-A (8-109) [2]): 35.4 | Cellular IC50 (hVEGF-A [11]): 3.06 nM

GCNIMLPFWGCGLDYDCLAGCVCQYYQSCG (designed binder) [VEGF_CKP9.54.2]
IC50 (hVEGF-A [10]): 0.2 nM | ELISA (hVEGF-A (8-109) [2]): 0.1 | S/N vs BSA (hVEGF-A (8-109) [2]): 26 | Cellular IC50 (hVEGF-A [11]): 4.3 nM

GCDPMQPFWGCKQDSDCLAGCVCRWYQSCG (designed binder) [VEGF_CKP9.59]
IC50 (hVEGF-A [1]): 5820 nM

GCNLMLPFWGCKQDSDCLAGCVCRWYHSCG (designed binder) [VEGF_CKP9.20]
IC50 (hVEGF-A [1]): 1340 nM

GCKLFEPLWGCKQDSDCLAGCVCRWYESCG (designed binder) [VEGF_CKP9.96]
IC50 (hVEGF-A [1]): 49000 nM | ELISA (hVEGF-A (8-109) [5]): 1.2 | S/N vs BSA (hVEGF-A (8-109) [5]): 18.4

GCDVMQPYWGCEMDFDCLAGCVCHWYNSCG (designed binder, also called L2.9.63.44) [VEGF_CKP9.63.44]
IC50 (hVEGF-A [10]): 0.2 nM | ELISA (hVEGF-A (8-109) [2]): 1.7 | S/N vs BSA (hVEGF-A (8-109) [2]): 19.5 | Cellular IC50 (hVEGF-A [11]): 2.05 nM

GCDVMQPYWGCGRDMDCLAGCVCHWYNSCG (designed binder, also called L2.9.63.27) [VEGF_CKP9.63.27]
IC50 (hVEGF-A [10]): 0.3 nM | ELISA (hVEGF-A (8-109) [2]): 2.1 | S/N vs BSA (hVEGF-A (8-109) [2]): 26 | Cellular IC50 (hVEGF-A [11]): 5.28 nM

GCRTPWEPHDITCKQDSDCLAGCVCGPNGFCG (designed binder) [VEGF_CKP11]
ELISA (hVEGF-A (8-109) [2]): 4.1 | S/N vs BSA (hVEGF-A (8-109) [2]): 57.5 | IC50 (hVEGF-A [3]): 80000 nM

GCTTPWPPHEIMCKQDSDCLAGCVCGPNGFCG (designed binder) [VEGF_CKP12]
ELISA (hVEGF-A (8-109) [2]): 3.5 | S/N vs BSA (hVEGF-A (8-109) [2]): 55.2 | IC50 (hVEGF-A [3]): 60000 nM

GCVTPWKPHWINCKQDSDCLAGCVCGPNGFCG (designed binder) [VEGF_CKP13]
ELISA (hVEGF-A (8-109) [2]): 3.5 | S/N vs BSA (hVEGF-A (8-109) [2]): 56.3 | IC50 (hVEGF-A [3]): 80000 nM

CNIMLPYWGCGRDFECLAGCVCQYYQSC (designed binder) [9.54.90.F7Y.A2G]
Cellular IC50 (hVEGF-A [4]): 3.01 nM | FOLD [..] [..] TO VARIANT 9.54.90 (hVEGF-A [4]): 0.44 fold

GCNIMLPYWGCGRDFECMNQCICQYYQSCG (designed binder) [VEGF_CKP9.54.90.13.F8Y]
Cellular IC50 (hVEGF-A [4]): 2.02 nM | FOLD [..] [..] TO VARIANT 9.54.90 (hVEGF-A [4]): 0.67 fold
